In the assay the target is T1, CS1 recombinant protein (SEQ ID NO: 97), plate-bound.
T1 chain: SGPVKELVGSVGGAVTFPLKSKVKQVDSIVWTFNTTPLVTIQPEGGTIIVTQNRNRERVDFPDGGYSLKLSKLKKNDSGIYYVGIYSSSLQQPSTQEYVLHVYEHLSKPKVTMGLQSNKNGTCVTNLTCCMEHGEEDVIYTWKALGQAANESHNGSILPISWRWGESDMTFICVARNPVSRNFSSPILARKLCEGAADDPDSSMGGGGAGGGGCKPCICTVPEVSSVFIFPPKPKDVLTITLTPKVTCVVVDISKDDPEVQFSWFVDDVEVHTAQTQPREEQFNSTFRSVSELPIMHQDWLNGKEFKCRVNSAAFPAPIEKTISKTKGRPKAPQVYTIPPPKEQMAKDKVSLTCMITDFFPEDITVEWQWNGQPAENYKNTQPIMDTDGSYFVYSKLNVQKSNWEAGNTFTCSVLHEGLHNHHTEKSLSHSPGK
The assay is described as follows: cell-based or functional assay.

B1: CS1-specific second generation CAR (SEQ ID NO: 96) on T cells (other)
chain: QVQLQQPGAELVRPGASVKLSCKASGYSFTTYWMNWVKQRPGQGLEWIGMIHPSDSETRLNQKFKDKATLTVDKSSSTAYMQLSSPTSEDSAVYYCARSTMIATRAMDYWGQGTSVTVSSGGGGSGGGGSGGGGSDIVMTQSQKSMSTSVGDRVSITCKASQDVITGVAWYQQKPGQSPKLLIYSASYRYTGVPDRFTGSGSGTDFTFTISNVQAEDLAVYYCQQHYSTPLTFGAGTKLELKTTTPAPRPPTPAPTIASQPLSLRPEACRPAAGGAVHTRGLDFACDIYIWAPLAGTCGVLLLSLVITLYCKRGRKKLLYIFKQPFMRPVQTTQEEDGCSCRFPEEEEGGCELRVKFSRSADAPAYQQGQNQLYNELNLGRREEYDVLDKRRGRDPEMGGKPRRKNPQEGLYNELQKDKMAEAYSEIGMKGERRRGKGHDGLYQGLSTATKDTYDALHMQALPPR
On to B1, for which the “RNA-seq of CAR+ T cells 24 h after activation on plate-bound CS1 protein versus unactivated cells: genes induced (fold change greater than 5)” value turned out to be 159 genes.

Source of the values: patent publication US20250281613A1 (CELLECTIS S A, published 2025).
